Measurements as given in the DeepSol protein solubility set.

experiment: soluble on expression in E. coli; label from the status in PepcDB or PDB records

Sequence	soluble on expression in E. coli
MGSDKIHHHHHHMIYIGLPQWSHPKWARLGITSLEEYARHFNCVEGNTTLYALPKAEIVDRWYAQTTDDFRFCFKFPATISHQAALRHCDDLVQAFFTRLAPLETRIGQYWLQLPAAFGPRDLPALWQFLDALPATFTYGVEVRHPCFFDKGEDEQRLNRGLHARGVNRVILDSRPVHAAHPHSEAVRDAQRKKPKVPVHAVVTASHPMVRFIGSDNMAQNREFFAAWLQKLPQWRQTTTPFLFLHTPDIAQAPELVNTLWHDLRSVLPEIGTAPSIPQQSSLF	not soluble
MSLARVFNACLFFYKIGGKMAMGEFDLIKRYFQQQILVDDSVQLSIGDDCALVSVPENYQLAITTDTMVENTHFLPTISPEDLAYKAVATNLSDLAAMGAQPKWVSLALTLPNVDENWISTFSQSLLHTLKQYNVTLIGGDTTKGNLSITITAQGFVEKNKGICRHKAQIGDLIYVSSTLGDSAAGLTQILLGKSAVDSDDVFLQQRHLRPTPRIELGQALIGIAHVAIDLSDGLISDLGHILERSQCSAEVELTALPLSSSILNKYDRTQAEQFALSGGEDYELCFTIPPEYKDELELRLKKLNVPCTCIGKINEKCGDFSPRFLRDGKPVNITFSSGFDHFKESKEGHHHHHH	soluble
MGSDKIHHHHHHGKPLRKVDLLADIRPDVEEEVCDSDTIVLPPPVKPIFVDTCKTGITCIEDYSDSTMRGMKHFYEALSKVKTMKRPVRIAYFGDSFIEADIFTADLREMLQQEFGGCGVGYVPVTSSISGYRPTVRHTFGGWSSHSSNDSVGFDKMQQDISGHYFFPREGAYVQLKGQSKYASRLDTCEVSTFYFLNKGFAAVRSKVNNAAEGELHEEVGTGGVQAVSVRGRIGQVRWSVEQADSVTFYGVAMDGRQGISLDNFSVRGSSGLHLRSIPLHTLCDFQRLRPYDLIVVQYGLNVATERGVKYDGYKKGMLSVIEHLKTAFPETSILLVSVGDREYKNENGDLRTMPGVKNLIRYQQSIAADSHIAFWNMYEAMGGQGSIVDMIGQKMANLDYTHINFKGGKHLAGILFETLMYGKEQYERRKAYEEE	not soluble
MGSDKIHHHHHHMELSSPSKKTTTSPINIPGGNRDNLIIGPHSHSFKTDPFSSNNSSLLSKISTNPSLESPFSSKSLLDCSPVQAVKKSLESEAKTHSLDEETNEQTDVKILNIADFPTDELILMISALLNRIITANDETTDVSQQVSDETEDELLTPILAFYGKNVPEIAVVQYLERIQKYCPTTNDIFLSLLVYFDRISKNYGHSSERNGCAKQLFVMDSGNIHRLLITGVTICTKFLSDFFYSNSRYAKVGGISLQELNHLELQFLILCDFKLLVSVEEMQKYANLLYKFWNDQ	not soluble
MAAIIRTLFKSKKSKKGDEENNEDLAREVSNRRSFRAPSTSSSKSQRRAVARFADDGALPATAAYHTTSAPKLRKGPQSCPGGYRDESDVSYESDKYSQKSNSHRRRDVLHQSMRQNYTIDEGRKPSSRRHHSSKSDFRRRGESSEYGSGDPSPVGQYSSRHSHYEDRIEESENDDFSEKAQFAVIERAQQHYMQKYKESEQKRREEKRKLKDMEKECNDAKNAMFHYMNQLDKVKKERDCYRKELSRCKKQLEAFQNSGYDAFHHLRQPQISNPQQYPPPLSMGSYPYMSQSMNASHHMSSNFMNSAPPSSNTPMTMTSGAGESLINPSDVSFLQNSFLQPTSQGLTGMTPPPGGFKVPTNYGDDDRDEVKDYRSELLIETSRSTKEVDSISPSSSADSQVTLLDHSTIDKENRKPPSRPFSMMSI	not soluble
MGSDKIHHHHHHMSIFFLNNGIMNILQEYSVLNAKVIIYEENGIGYYKVNEPNLDQNEIEILNSILEYIYSTPSVPNIEETVVKILKNKGISDQGIIEKIIYYLRKRIGYDELTVPLADPYVEEIECKGFSYPVTVVHRIVTRFPRLYTNIILEQEDHVLKVIEKLANKADKPVSIAKPYLEFSLPEGHRVAATVSREVSLPGSTFDIRKFPLKPISPISLIKNESISSLMLAYIWFLLDYKPFFLIIGSTGSGKTTLLNSILSMINPFFKVITIEDTPEINIIHDNWIRFFARQSISSQFEVSLMDLAKLSLRYRPDYLVIGEIRGKEIEALVHASASGHGSLATFHAGNPHEALTRLLSLLNKDVAKLFLQNLWGIIVLGTLRDRNGNIRRIIRSIYEIVYTRGKLRFRPVLRWSFSSNTFMPNNIDDLIKRSYRISYISKTYEIPISEITKEISNRVKTLNNFVSNNILDLEEFSVYLKKISQGDKVETKAI	not soluble
MVDNLIKYIHKSDVAIVVLHEIYGINSFIEDVCQKYYKYGYDVFCPELLGEKRVFPYSKVQEAYDFFINNVGFDIYKKVEKLINDLKSEYKYVFVAGYSVGATIAWRCSEDSFCDGIICCYGSRIRDYMDVIPKCPTLLVFAKHDSFDVDSISCQLSRKQNIQIEILDANHGFIDRYSNNYSDIQTKVFTIKEKSFLSKCLA	not soluble
MAHHHHHHMSGPPKQCYYELLQVDRKASSEEIRQAYKKQALIHHPDKNYSNEQSTIEKFKDIQNAYAVLSDPDERAWYDAHRESILNGEDADSSQHEVNLYCYFTSRCFDGFDDNEGGFYSVYRKVFDQLIEDESEYSSNAKTWPRFGDSATSWSSVSKFYSHWRNFSSCKTFAWKDEYKVNEIPDRASRRMAERINQKLRTSAKKEYVQIVQGLTRFVHRRDPRVAAELTRQEEERRLKEEEREKRELEWAKNRREANEKLWAEAAEKEAEEERARIERGEAPDSCTLDLLYEKQRQCEEARKVKGGTNCGFAMLEDEHEDNLPEKKRSCPACKKQFKTDAQYKEHVNSSKHKAKLRQLSAKGVDIETLMNEEKDISTCV	soluble
MGSDKIHHHHHHMNTSYLIDFLENKQVSTITKTKHSYLTYHGLEEGYTYVLKKGIVKTSIILKNGREFNLSYINSTDIVSLLRDEISAYTASPLNVRIESDEAIFYRIPRKTFWDYVNHDTHLQDYVRDYYRIKLTQNIKSLQWMTMNGKKGAVCAFIYKLIDIFGRRGATGILIDFPITNEEIANFCGISTRNSVNRIIHDLKEQHVIDIKNQKIFIYDENYLREFTI	not soluble
MGSDKIHHHHHHMINQVYRLVSERQFEEANIEEALTEDVVVVRPTYLSICAADQRYYTGSRGKEMLSKKLPMALIHEGVGQVTYDATGEFEIGTKVVMIPNTPTEDDPVIAENYRRSSLFRSSGYDGLMQENVFMRRDRVVRLPENMDMEVAAYSELISVAFHAITRFKQKANANQSVFGVWGDGNLGFITCLLLKTIYPESKVIIFGKTQYKLDFFSFVDEAHLVDEIPEGLVIDNAFECAGGKGSQYAVEQIIDLIKPEGTISLLGVSENPIEFNSRMVLEKGLTVFGSSRSGKEDFQNTVNFLSENERAVEYLSSLIGQRKVVRNLQDIIEAFETDLRNPFGKTVMEWKV	not soluble
MSWYTSCPKMLLGATAVAVPLGATVFRRESEKSENLLKIKKAKELVETTMAIQGIPGLSIAVSLDGKMVWKSGFGYANLESFAKCTGDSVMRIASISKPITATLAAQCVENGTLDLDEDIRKYLPEFPAKKFKNEDVKITMRQLLSHSAGIRHYATEKKKSETHEDPSNNNTETPEFLSNKPYNSSLDALAIFKNDDLVEKPGSKFSYTTYGLTLAGAVLEKCSGKTYRQLANQLFSDLGMRNTQLDTKEKIVPGRASYYQRNSKNILENCPEVDCSNKFAGGGIISNTTDLLIIANAILHSILSDSKNCLLQRETIRKFLEKQVPVDSKTSTGLGWFLVDGKDLKSIDGNISNSSFFYHTGAAVGASSVLLVNTSSGVCVAILCNLQNTTVLKLGRDIGDLFHGEI	soluble
KCGFSYGVGFNVFNYKAVVTKYNNPEGIIYNNHTGLAANKGYYEGMDIGEIWGYRADDLFLSNREIDDYLRNVNLTAFKSNDLWRRGDLKYIDSNGDGRVDGGKGTLADHGDLQIIGNTTPKYSFGINLNLGYKGFEVSTLLQGVAKRDFPISGSNYMFGGNNYNFKEHLDYFSTENPNGYLPRLTGWKDDKDFLVNTGYNTTRYLLNAAYMRMKNLTVAYTFNKKQLKHIGISNLKVYVTCDNLFTVTKLPKQFDPETLNQVNMSAGGDAQNTAPGLTSPMKQNGNGMVYPMNRNFVFGLDFTF	not soluble
MHMNAEEIGMALLNGRKELGLRQGELADLAGVSERFIRDVEKGKTTVRLDKVIDVLRVLGLELSVGIHDPLKVNQ	not soluble
MEVFGKSPMVVTSANVIYLSAILGRDCDGHKCDWKCENENVCGNMYRCKLTGLTHVCDKNCNQRILYDNHSSLCRASGRIFPLSSVEEQAVKGVRRKLDAAESHPSESCSFKRRRRDAQFHASPFERSFTAVSPICSPAGDGMELV	not soluble
MNDALHIGLPPFLVQANNEPRVLAAPEARMGYVLELVRANIAADGGPFAAAVFERDSGLLIAAGTNRVVPGRCSAAHAEILALSLAQAKLDTHDLSADGLPACELVTSAEPCVMCFGAVIWSGVRSLVCAARSDDVEAIGFDEGPRPENWMGGLEARGITVTTGLLRDAACALLREYNACNGVIYNARCGVHK	soluble
MGSDKIHHHHHHMQDNLIEIRDLRVAFNGHEVVHGISLDIRRGECLALVGESGSGKSVTAHSILRLLPPKNVSTQGSIRYDGLDLVTASDKQLRSLRGNRVAMIFQEPMSSLNPLHTVEKQIGEILVTHKGLKGKAALSRTLELLELVGIREPLLRLKAYPHQLSGGQRQRVMIAMALANEPDLLIADEPTTALDVTVQVKILELLKSLQQRLNMSLLLISHDLNLVRRIAQRVCVMREGEIVEQADCQALFDNPQHPYSRLLINAEPDGEPVPSTHSNTLLSVQDLKVWFPLGKAWFQREQQYVKAVDGVSFELLKGKTLGIVGESGSGKSTLGQAILRLVDSEGSIRFGTKELSLHSQHLMRPLRRQLQVVFQDPFGSLSPRMTVEQIIAEGLVTHKIGTPKEREQTVIRVLQEVGLDPATRHRYPHEFSGGQRQRISIARALVLEPDLILLDEPTSALDRTVQKQIVALLRDLQIRHGLTYLFISHDLAVVHALAHDLIVIKDGKVVEQGPSREIFAAPQQAYTQELLRSSGLVFA	not soluble
MGSDKIHHHHHHTEMEPKFTEPVNINGEDYYKALREYKKSDHPIVFGWYSEWTGTGTNMNNQLRGIPDSMDIVSLWGGAFNLTEAQKSDLKEVREKKGLRVLYCQHITDIGRSHTPASVENDFIVDGVQYNSKDEAMAAYWGWYGNYGDTSEEGQEKAIRKYARVIIDSINKYNYDGFDIDFEPNFGYSGNLSGNSDRMHIFLDELSKEFGPKSGTGRILMVDGEPQTLNKESGPLLDYYVVQAYYCRSDEGYSDALDGRFDRLLNKFGSIEDEATILSKTVWCEDFEKHKGDGGPEFTTRDGIVTYSLKGMAMYYRPGVDARIGGVGAYRFNLCRPVNDYFFMREVIQVLNPANH	not soluble
MHSQFGKHKSDISLLTPAPPSPKAFGLLYAAHWLGSTDPEIWERLETLANENQCLIDLRDEKVPGTYETQLFVIGYAGNIVTVLKQLQDYIDEPNNFDRFDIDRRPRKETLKMCVPTDMFLSKFGVGLVAEGRITHYEQNRGVTIKTYAISQSQHVISVYSNENNHQLPLHDLVEYFAYPSQCYEKSFAQKIPYLVDNKSGLLNRFKDISKLDVIKTPRDQLWLMALDGMKTVDARESILQALRENPDSASLYVRACKLEHLPSCKMEWLLHALQRDTLDDKMKIIKHAETYFRGPAILQILESAVLSLSNDIHIVRELAIAHEKSGNFEKSMQFLKDCIDNNSWNSTELTASMIHCEHAGANRTSKVYLEAMYSIFNFTTSEEAALIEIVKVLVETDSPLSAKSLSLELMTRYAGTPTFEKTRQLFHSLFYTTCSKSDSERYDDTFIKHMAKWNKKQQEQQK	not soluble
MGSDKIHHHHHHVAETTTEQTIQKASSAIHYNAFSHNDYWRERPLLDALSFRFNCVEADLWLIDDELYVSHDRPEPNPAITFENLYLKPLVARIQANGGKVYPGSDRPFYLMVDCKAQGEEMYKLLKKQMEPYKEYFCSVDNGEYKEGAVLFFLSGDRPKNSLPKENSRFTFLDGQIKDLGQGIPASLAPVISDNYSDFFTWKGEGEMPADQLQKMREIIRKVHDEGKLFRWWGAPDTEQFKRFFIKEGVDLVGADDLNGLYNVLNER	not soluble
